Tests used:
[1] = target: E-hsp60 SCT (HLA-E SCT harboring the hsp60-derived peptide …) (human); test: flow cytometry, stably transfected LLC-PK1 cells
[2] = target: E-Cw*03 SCT (HLA-E single chain trimer with the peptide …) (human); test: flow cytometry, sorted E-Cw*03 SCT LLC-PK1 stable transfectants
[3] = target: E-Cw*03 SCT (HLA-E single chain trimer with the peptide …) (human); test: flow cytometry, stably transfected LLC-PK1 cells
[4] = target: HLA-E SCD (HLA-E single chain dimer) (human); test: flow cytometry, stably transfected LLC-PK1 cells

HLA-E-specific mAb MEM-E/6 (antibody)
fold less staining than E-Cw*03 SCT [1]: 4 to 5 fold

HLA-E-specific mAb 3D12 (antibody)
percent of cells stained [2]: 100%
mean fluorescent intensity (MFI) [3]: 375 MFI
mean fluorescent intensity (MFI) [4]: 62 MFI

From patent US20050196404A1
